Measurements as given in patent US20210388087A1 (Chugai, published 2021).
Changes are numbered by the printed parent chain. In names and notes the source's numbering stands.

T1: Human CD3eg linker (human)
T1 construct: Single chain: epsilon and gamma subunits of human CD3 joined by a 29-mer linker, Flag-tag at the C-terminus; also called recombinant human CD3
T1 chain: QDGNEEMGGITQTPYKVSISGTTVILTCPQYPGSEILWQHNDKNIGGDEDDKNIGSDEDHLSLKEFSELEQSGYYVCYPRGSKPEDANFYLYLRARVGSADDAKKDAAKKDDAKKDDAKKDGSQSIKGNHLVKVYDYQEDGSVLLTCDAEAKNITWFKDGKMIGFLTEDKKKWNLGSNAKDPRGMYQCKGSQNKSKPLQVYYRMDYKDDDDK

B1: H183/L072 VH F100gP (antibody, name in Kabat numbering, V domains shown)
VH: QVQLVESGGGLVQPGRSLRLSCAASGFTFSNAWMHWVRQAPGKGLEWVAQIKDKGNAYAAYYAPSVKGRFTISRDDSKNSIYLQMNSLKTEDTAVYYCHYVHYASASTVLPAPGVDAWGQGTTVTVSS
VL: DIVMTQSPLSLPVTPGEPASISCQASQELVHMNRNTYLHWYQQKPGQAPRLLIYKVSNRFPGVPDRFSGSGSGTDFTLKISRVEAEDVGVYYCAQGTSVPFTFGQGTKLEIK
B2: H183/L072 VH G65A (antibody, name in Kabat numbering, V domains shown)
VH: B1 VH with G68A, P113F
VL: B1 VL
B3: H183/L072 VH G26N (antibody, name in Kabat numbering, V domains shown)
VH: B1 VH with G26N, P113F
VL: B1 VL
B4: H183/L072 VH G52cL (antibody, name in Kabat numbering, V domains shown)
VH: B1 VH with G55L, P113F
VL: B1 VL
B5: H183/L072 VH G52cN (antibody, name in Kabat numbering, V domains shown)
VH: B1 VH with G55N, P113F
VL: B1 VL
B6: H183/L072 VH G52cH (antibody, name in Kabat numbering, V domains shown)
VH: B1 VH with G55H, P113F
VL: B1 VL
B7: H183/L072 VH G26M (antibody, name in Kabat numbering, V domains shown)
VH: B1 VH with G26M, P113F
VL: B1 VL
B8: H183/L072 VH G65P (antibody, name in Kabat numbering, V domains shown)
VH: B1 VH with G68P, P113F
VL: B1 VL
B9: H183/L072 VH G52cI (antibody, name in Kabat numbering, V domains shown)
VH: B1 VH with G55I, P113F
VL: B1 VL
B10: H183/L072 VH G52cM (antibody, name in Kabat numbering, V domains shown)
VH: B1 VH with G55M, P113F
VL: B1 VL
B11: H183/L072 VH G26H (antibody, name in Kabat numbering, V domains shown)
VH: B1 VH with G26H, P113F
VL: B1 VL
B12: H183/L072 VH G65M (antibody, name in Kabat numbering, V domains shown)
VH: B1 VH with G68M, P113F
VL: B1 VL
B13: H183/L072 VH G65L (antibody, name in Kabat numbering, V domains shown)
VH: B1 VH with G68L, P113F
VL: B1 VL
B14: H183/L072 VH G52cK (antibody, name in Kabat numbering, V domains shown)
VH: B1 VH with G55K, P113F
VL: B1 VL
B15: H183/L072 VH G26R (antibody, name in Kabat numbering, V domains shown)
VH: B1 VH with G26R, P113F
VL: B1 VL
B16: H183/L072 VH G52cS (antibody, name in Kabat numbering, V domains shown)
VH: B1 VH with G55S, P113F
VL: B1 VL
B17: H183/L072 VH G52cD (antibody, name in Kabat numbering, V domains shown)
VH: B1 VH with G55D, P113F
VL: B1 VL
B18: H183/L072 VH G100hI (antibody, name in Kabat numbering, V domains shown)
VH: B1 VH with P113F, G114I
VL: B1 VL
B19: H183/L072 VH G52cP (antibody, name in Kabat numbering, V domains shown)
VH: B1 VH with G55P, P113F
VL: B1 VL
B20: H183/L072 VH G52cY (antibody, name in Kabat numbering, V domains shown)
VH: B1 VH with G55Y, P113F
VL: B1 VL
B21: H183/L072 VH G65I (antibody, name in Kabat numbering, V domains shown)
VH: B1 VH with G68I, P113F
VL: B1 VL
B22: H183/L072 VH G100hL (antibody, name in Kabat numbering, V domains shown)
VH: B1 VH with P113F, G114L
VL: B1 VL
B23: H183/L072 VH G100hA (antibody, name in Kabat numbering, V domains shown)
VH: B1 VH with P113F, G114A
VL: B1 VL
B24: H183/L072 VH G52cQ (antibody, name in Kabat numbering, V domains shown)
VH: B1 VH with G55Q, P113F
VL: B1 VL
B25: H183/L072 VH G52cT (antibody, name in Kabat numbering, V domains shown)
VH: B1 VH with G55T, P113F
VL: B1 VL
B26: H183/L072 VH G52cV (antibody, name in Kabat numbering, V domains shown)
VH: B1 VH with G55V, P113F
VL: B1 VL
B27: H183/L072 VH G26L (antibody, name in Kabat numbering, V domains shown)
VH: B1 VH with G26L, P113F
VL: B1 VL
B28: H183/L072 VH G26S (antibody, name in Kabat numbering, V domains shown)
VH: B1 VH with G26S, P113F
VL: B1 VL
B29: H183/L072 VH G26T (antibody, name in Kabat numbering, V domains shown)
VH: B1 VH with G26T, P113F
VL: B1 VL
B30: H183/L072 VH G26W (antibody, name in Kabat numbering, V domains shown)
VH: B1 VH with G26W, P113F
VL: B1 VL
B31: H183/L072 VH G52cW (antibody, name in Kabat numbering, V domains shown)
VH: B1 VH with G55W, P113F
VL: B1 VL
B32: H183/L072 VH G26P (antibody, name in Kabat numbering, V domains shown)
VH: B1 VH with G26P, P113F
VL: B1 VL
B33: H183/L072 VH G52cE (antibody, name in Kabat numbering, V domains shown)
VH: B1 VH with G55E, P113F
VL: B1 VL
B34: H183/L072 VH G26K (antibody, name in Kabat numbering, V domains shown)
VH: B1 VH with G26K, P113F
VL: B1 VL
B35: H183/L072 VH G26D (antibody, name in Kabat numbering, V domains shown)
VH: B1 VH with G26D, P113F
VL: B1 VL
B36: H183/L072 VH G26E (antibody, name in Kabat numbering, V domains shown)
VH: B1 VH with G26E, P113F
VL: B1 VL
B37: H183/L072 VH G26F (antibody, name in Kabat numbering, V domains shown)
VH: B1 VH with G26F, P113F
VL: B1 VL
B38: H183/L072 VH G52cR (antibody, name in Kabat numbering, V domains shown)
VH: B1 VH with G55R, P113F
VL: B1 VL
B39: H183/L072 VH G26I (antibody, name in Kabat numbering, V domains shown)
VH: B1 VH with G26I, P113F
VL: B1 VL
B40: H183/L072 VH G52cA (antibody, name in Kabat numbering, V domains shown)
VH: B1 VH with G55A, P113F
VL: B1 VL
B41: H183/L072 VH G52cF (antibody, name in Kabat numbering, V domains shown)
VH: B1 VH with G55F, P113F
VL: B1 VL
B42: H183/L072 VH G26V (antibody, name in Kabat numbering, V domains shown)
VH: B1 VH with G26V, P113F
VL: B1 VL
B43: H183/L072 VH G100hM (antibody, name in Kabat numbering, V domains shown)
VH: B1 VH with P113F, G114M
VL: B1 VL
B44: H183/L072 VH G26Y (antibody, name in Kabat numbering, V domains shown)
VH: B1 VH with G26Y, P113F
VL: B1 VL
B45: H183/L072 VH G26Q (antibody, name in Kabat numbering, V domains shown)
VH: B1 VH with G26Q, P113F
VL: B1 VL

Target: T1, Human CD3eg linker
Test: Biacore SPR, vs template H183/L072

Row | fold change of affinity | Binder
1 | 1.8 fold | B1
2 | 1.1 fold | B2
3 | 0.4 fold | B3
4 | 1.5 fold | B4
5 | 1.2 fold | B5
6 | 1.7 fold | B6
7 | 0.6 fold | B7
8 | 0.9 fold | B8
9 | 1.1 fold | B9
10 | 1.4 fold | B10
11 | 0 fold | B11
12 | 0.9 fold | B12
13 | 0.9 fold | B13
14 | 1.6 fold | B14
15 | 0.5 fold | B15
16 | 1 fold | B16
17 | 1.1 fold | B17
18 | 2.6 fold | B18
19 | 1.3 fold | B19
20 | 1.5 fold | B20
21 | 1 fold | B21
22 | 0.8 fold | B22
23 | 4.8 fold | B23

Row | fold change of affinity | Binder
24 | 1.9 fold | B24
25 | 0.9 fold | B25
26 | 1.5 fold | B26
27 | 0.6 fold | B27
28 | 0.2 fold | B28
29 | 0.4 fold | B29
30 | 0.6 fold | B30
31 | 1.5 fold | B31
32 | 0.1 fold | B32
33 | 1.2 fold | B33
34 | 0.6 fold | B34
35 | 0.2 fold | B35
36 | 0.6 fold | B36
37 | 0.4 fold | B37
38 | 1.4 fold | B38
39 | 0.5 fold | B39
40 | 1.6 fold | B40
41 | 2 fold | B41
42 | 0 fold | B42
43 | 4.2 fold | B43
44 | 0.6 fold | B44
45 | 0.4 fold | B45
